Source: article PMC3887218

How the values were obtained:
[1] = fluorescence lifetime imaging (TCSPC); in vitro, pH 4.7, no heparin, 24 h; K18*: 1 μM, 10% labelled, cell culture medium (3824 ± 22 ps soluble); hTau40*: 10 μM, 1% labelled, BES buffer (3765 ± 53 ps soluble); details: other: fluorescence lifetime imaging (TCSPC)
[2] = fluorescence lifetime imaging (TCSPC); in vitro, 4:1 Tau:heparin (Mr 3000), 24 h, 37 °C; K18*: 1 μM, 10% labelled with Alexa Fluor 488, in cell culture medium (3664 ± 25 ps before); hTau40*: 20 μM, 1% labelled, in BES buffer pH 7.4 (3657 ± 18 ps before); a drop of the lifetime reports …; details: other: fluorescence lifetime imaging (TCSPC)
[3] = molecular target: K18* (four-repeat construct K18 of human Tau with Cys-291 and Cys-322 replaced by alanine and Ile-260 replaced by cysteine) (human); assay: SDS-PAGE and Western blot of sequential detergent extracts; SH-SY5Y cells incubated 8 h with 1 μM K18*, trypsin-washed, lysed; Triton and sarkosyl fractions; NuPAGE 4-12% BisTris gel, anti-human Tau antibody A0024

For “K18* (four-repeat construct K18 of human Tau with Cys-291 and Cys-322 replaced by alanine and Ile-260 replaced by cysteine)”, the “fluorescence lifetime of the Alexa Fluor 488 label, aggregated at pH 4.7” value [1] was 3268 ± 31 ps and the “fluorescence lifetime of the Alexa Fluor 488 label, aggregated with heparin” value [2] was 3262 ± 71 ps when aggregated.
For “K18* (four-repeat construct K18 of human Tau with Cys-291 and Cys-322 replaced by alanine and Ile-260 replaced by cysteine) (domain or fragment)”, the stoichiometry N [3] was 2.
